Test results reported in paper PMC10590986.
pKd: −log10 of the molar value. Several values for one entry are separate records, joined by “and”; a condition that tells them apart may be missing. Equal values may be shown once.

Target: poliovirus 3AsolBC protein (poliovirus)
Assay: SEC

For “poliovirus 3AsolBC protein (natural protein)”, the pKd was 4.22 to 4.70 and the percent of the total absorbance in the leading-edge (dimer) peak was 10% and 30%.
